T1: recombinant human FGFR1c Fc fusion (human, UniProt P11362 141-376)
T1 construct: also called FGFR1IIIc; not shown: Fc part of the FGFR-Fc fusion
T1 sequence: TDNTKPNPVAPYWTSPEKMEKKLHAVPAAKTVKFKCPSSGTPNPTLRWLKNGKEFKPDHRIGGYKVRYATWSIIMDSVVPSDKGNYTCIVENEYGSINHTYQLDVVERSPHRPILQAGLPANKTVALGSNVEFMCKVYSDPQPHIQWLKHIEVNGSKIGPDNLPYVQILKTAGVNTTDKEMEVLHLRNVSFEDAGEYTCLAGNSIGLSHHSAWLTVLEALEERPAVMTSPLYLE

T2: FGFR2IIIb Fc fusion (negative control) (human)
T2 construct: also called FGFR2b; not shown: Fc part of the FGFR-Fc fusion
T2 chain: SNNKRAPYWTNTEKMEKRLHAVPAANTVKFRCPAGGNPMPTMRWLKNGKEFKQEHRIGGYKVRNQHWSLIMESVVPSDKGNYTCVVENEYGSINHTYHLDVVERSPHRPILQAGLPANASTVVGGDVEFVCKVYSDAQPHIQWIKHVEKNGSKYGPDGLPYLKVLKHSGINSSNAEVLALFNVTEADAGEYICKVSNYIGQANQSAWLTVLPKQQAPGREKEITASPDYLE

T3: recombinant human FGFR4 Fc fusion (human, UniProt P22455 144-369)
T3 construct: 19 used; also called FGFR4c; not shown: Fc part of the FGFR-Fc fusion
T3 sequence: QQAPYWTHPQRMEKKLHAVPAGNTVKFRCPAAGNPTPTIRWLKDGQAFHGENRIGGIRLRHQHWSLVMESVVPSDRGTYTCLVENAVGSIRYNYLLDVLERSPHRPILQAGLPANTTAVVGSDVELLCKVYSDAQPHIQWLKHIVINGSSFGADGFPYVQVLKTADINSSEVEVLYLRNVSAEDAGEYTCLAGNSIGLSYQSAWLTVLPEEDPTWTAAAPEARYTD

T4: recombinant human FGFR3c Fc fusion (human, UniProt P22607 141-372)
T4 construct: also called FGFR3IIIc; not shown: Fc part of the FGFR-Fc fusion
T4 sequence: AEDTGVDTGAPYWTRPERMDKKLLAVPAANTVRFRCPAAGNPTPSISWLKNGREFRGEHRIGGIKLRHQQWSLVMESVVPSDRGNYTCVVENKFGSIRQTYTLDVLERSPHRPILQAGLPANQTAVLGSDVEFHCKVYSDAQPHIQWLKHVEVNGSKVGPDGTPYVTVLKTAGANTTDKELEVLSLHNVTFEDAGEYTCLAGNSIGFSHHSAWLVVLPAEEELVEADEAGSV


Key:
Test in all cases: ELISA, scFv on coated FGFR-Fc
[1] = molecular target: T1, recombinant human FGFR1c Fc fusion
Protocol: (§1) To characterize the novel anti-FGFR antibodies, their relative ability to bind to each individual FGFR in vitro was compared. A solid phase-based ELISA was used to measure the relative binding of the candidate antibodies to immobilized recombinant human FGFR1c, FGFR2c, FGFR3c, and FGFR4. EC50 binding curves were generated for a subset of candidates (FIGS. 3A-3D, respectively; Table 1).
(§2) For the ELISA assay, the ability of each mAb to cross react with the […] FGF receptors was tested across a concentration curve in order to determine the relative binding across FGFR1-4. FGFR2IIIb was used as a negative control. Black 384-well Maxisorp plates were coated overnight with FGFR-Fc fusions in PBS to 1 ug/ml before washing and blocking with 75 ul/well Pierce Protein Free (PBS) Blocking Buffer for 1 hour at RT. Antibody dilutions were prepared freshly in 1% BSA- PBS+0.05% Tween20 and 25 ul of each antibody was added to wells in duplicate. Plates were incubated at RT for 2 hours, followed by addition of detection antibody at 50 ng/ml in 1% BSA PBS, 0.05% Tween20. ECL substrate (Pierce) was added and plates were read on the EnVision plate reader.

[2] = molecular target: T2, FGFR2IIIb Fc fusion (negative control)
Protocol: as §1, §2

[3] = molecular target: T3, recombinant human FGFR4 Fc fusion
Protocol: as §1, §2

[4] = molecular target: T4, recombinant human FGFR3c Fc fusion
Protocol: as §1, §2

[5] = molecular target: T5, recombinant human FGFR2c Fc fusion (human, UniProt P21802 148-377)
T5 construct: also called FGFR2IIIc; not shown: Fc part of the FGFR-Fc fusion
Protocol: as §1, §2

T5 sequence (P21802 148-377): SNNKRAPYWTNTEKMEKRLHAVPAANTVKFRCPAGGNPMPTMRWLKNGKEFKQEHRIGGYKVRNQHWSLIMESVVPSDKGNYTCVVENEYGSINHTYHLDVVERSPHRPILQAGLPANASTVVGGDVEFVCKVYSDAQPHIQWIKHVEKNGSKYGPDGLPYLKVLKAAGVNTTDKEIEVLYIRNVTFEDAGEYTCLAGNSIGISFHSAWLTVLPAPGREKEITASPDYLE

Row | Binder | EC50 [1] | EC50 [2] | EC50 [3] | EC50 [4] | EC50 [5]
1 | Ab15 (scFv format) (scFv, also called FGF#26) scFv: EVQLLESGGGVVQPGRSLRLSCAASGFTFSSYAMHWVRQAPGKGLEWVAVISYDGSNKYYADSVKGRFTISRDNSKNTLSLQMNSLRVEDTAIYYCVRGAGRGYTYGPDGFDIWGQGTMVTVSSASTGGGGSGGGGSGGGGSGGGGSDIVMTQTPLSLSVTPGQPASISCTSSRSLLHSDGKTYVYWYVQKSGQPPQLLIYELSNRFSGVPDRFSGSGSRTDFTLKISRVEAEDVGVYYCMQYIEAPLTFGGGTKVEIKRTVAAPSHHHHHH | 0.293 nM | ~80000 nM | 0.312 nM | 0.326 nM | 0.247 nM
2 | Ab3 (scFv format) (scFv, also called FGF#78) scFv: EVQLVESGGGVVQPGRSLRLSCAASGFTFSQYSMHWVRQSPGKGLEWVTLISFDGADKYYADSVKGRFTISRDNSNDTLFLHMNGLRVEDTAIYYCVRGAGRGYTYGPDGFDIWGQGTMVTVSSASTGGGGSGGGGSGGGGSGGGGSDIQLTQSPSSLSASVGDRVTITCRTSQTISRYLNWYQQQPGKAPKLLIYTATSLQSGVPSRFSGSGSGTDFTLTIGGLQPEDFAIYFCQQTYSAPLTFGGGTKVEIKRTVAAPSHHHHHH | 0.319 nM | ~108000 nM | 1.07 nM | 2.02 nM | 0.62 nM
3 | Ab4 (scFv format) (scFv, also called FGF#10) scFv: EVQLLESGGGVVQPGRSLRLSCAASGFTFSSYAMHWVRQAPGKGLEWVALISYDGSNKYYADSVKGRFTISRDNSKNTLYLQMNSLRAEDTAIYYCVRGAGRGYTYGPDGFDIWGQGTMVTVSSASTGGGSGGGGSDIVMTQTPLSLSVTPGQPASIFCKSSQSLIFGDGKTYLYWYLQKPGQPPRLLIYQVSNRFSGVPDRFSGSGAGTDFTLKISRVEAEDVGVYYCMQAKQFPWTFGQGTKLEIKRTVAAPSHHHHHH | 0.247 nM |  | 0.506 nM | 25.9 nM | 

The remaining binders from weak to strong by EC50 [1], led by results:

Row | EC50 [1] | EC50 [2] | EC50 [3] | EC50 [4] | EC50 [5] | Binder
4 | 129 nM | ~557000 nM | 72 nM | 77.2 nM | 75.7 nM | Ab14 (scFv format) (scFv, also called FGF#24) scFv: EVQLVETGGGLIQPGGSLRLSCVASGFTVSSNYMSWVRQAPGKGLEWVSVIFSDGTTYYADSVKGRFTISRDNSKNTLYLQMNSLKTEDTAVYYCVAGPANGAYDIWGQGTMVTVSSASTGGGSGGGGSNIQMTQSPSILSASVGDRVTITCRASQSISNWLAWYQQKPGKAPKLLIFRASTLESGVPSRFSGSGSGAEFNLTISSLQPDDFATYYCQQYNVYSGTFGQGTKVEIKRTVAAPSHHHHHH
5 | 0.201 nM | ~96700 nM | 0.278 nM | 1.36 nM | 1.47 nM | Ab7 (scFv format) (scFv, also called FGF#51) scFv: QVQLVESGGGVVQPGRSLRLSCAASGFTFSGYAIHWVRQAPGKGLEWVALISYDGSNKYYADSAKGRFTISRDNSKNTLSLQMNSLRVEDTAIYYCVRGAGRGYTYGPDGFDIWGQGTMVTVSSASTGGGGSGGGGSGGGGSGGGGSDIVMTQTPLSSPVTLGQPASISCRSSESLVYRDGNTYLSWLHQRPGQSPRLLIYKVSNRFSGVPDRFSGSGAGTDFTLKISRVEAEDVGVYFCMQATQFPWTFGQGTKVEIKRTVAAPSHHHHHH

Source: US20180244785A1 (MERRIMACK PHARMACEUTICALS, published 2018)
